Data: patent US20050004351A1

Legend:
Experiment in all cases: competitive ELISA
[1] = target: affinity purified β2GPI-dependent antiphospholipid antibody from patient 7015
[2] = target: affinity purified β2GPI-dependent antiphospholipid antibody from patient 7008
[3] = target: affinity purified β2GPI-dependent antiphospholipid antibody from patient 7104
[4] = target: affinity purified β2GPI-dependent antiphospholipid antibody from patient 6632
[5] = target: affinity purified β2GPI-dependent antiphospholipid antibody from patient 7101
[6] = target: affinity purified β2GPI-dependent antiphospholipid antibody from patient 6203
[7] = target: affinity purified β2GPI-dependent antiphospholipid antibody from patient 6626
[8] = target: affinity purified β2GPI-dependent antiphospholipid antibody from patient 6509
[9] = target: affinity purified β2GPI-dependent antiphospholipid antibody from patient 6701
[10] = target: affinity purified β2GPI-dependent antiphospholipid antibody from patient 6501
[11] = target: affinity purified β2GPI-dependent antiphospholipid antibody from patient 6644
[12] = target: affinity purified β2GPI-dependent antiphospholipid antibody from patient 6641
[13] = target: affinity purified β2GPI-dependent antiphospholipid antibody from patient 6652

Max inhibition [1]: 10%
Max inhibition [2]: 20%
Max inhibition [3]: 0%
Max inhibition [4]: 10%
Max inhibition [5]: 5%
Max inhibition [6]: 5%
Max inhibition [7]: 10%
Max inhibition [8]: 10%
Max inhibition [9]: 10%
Max inhibition [10]: 10%
Max inhibition [11]: 10%
Max inhibition [12]: 10%
Max inhibition [13]: 15%
B1: recombinant human β2GPI domain 5, GlyHis6 (protein)
chain: GRASCKLPVKKATVVYQGERVKIQEKFKNGMLHGDKVSFFCKNKEKKCSYTEDAQCIDGTIEVPKCFKEHSSLAFWKTDASDVKPCGHHHHHH
